Data on eight molecules can be found in US20260265379A1.

The labels stand for the following.
B1: bsAb061 (bispecific antibody)
heavy: QVQLVQSGAEVKKPGASVKLSCKASGYIFTRYYMYWVKQRPGQGLEWIGEINPNNGGTKFNEKFKNRATLTVDKSISTAYMELSRLRSDDTAVYYCSREDDYDGTPFAMDYWGQGTLVTVSSASTKGPSVFPLAPSSKSTSGGTAALGCLVKDYFPEPVTVSWNSGALTSGVHTFPAVLQSSGLYSLSSVVTVPSSSLGTQTYICNVNHKPSNTKVDKRVEPKSCDKTHTCPPCPAPEFEGGPSVFLFPPKPKDTLMISRTPEVTCVVVDVSHEDPEVKFNWYVDGVEVHNAKTKPREEQYNSTYRVVSVLTVLHQDWLNGKEYKCKVSNKALPASIEKTISKAKGQPREPQVYTLPPSREEMTKNQVSLTCLVKGFYPSDIAVEWESNGQPENNYKTTPPVLDSDGSFFLYSKLTVDKSRWQQGNVFSCSVMHEALHNHYTQKSLSLSPG
light: not shown
B2: bsAb026 (bispecific antibody)
heavy: QVQLVQSGAEVKKPGASVKLSCKASGYIFTRYYMYWVKQRPGQGLEWIGEINPNNGGTKFNEKFKNRATLTVDKSISTAYMELSRLRSDDTAVYYCSREDDYDGTPFAMDYWGQGTLVTVSSASTKGPSVFPLAPSSKSTSGGTAALGCLVKDYFPEPVTVSWNSGALTSGVHTFPAVLQSSGLYSLSSVVTVPSSSLGTQTYICNVNHKPSNTKVDKRVEPKSCDKTHTCPPCPAPEFEGGPSVFLFPPKPKDTLMISRTPEVTCVVVDVSHEDPEVKFNWYVDGVEVHNAKTKPREEQYNSTYRVVSVLTVLHQDWLNGKEYKCKVSNKALPASIEKTISKAKGQPREPQVYTLPPSREEMTKNQVSLTCLVKGFYPSDIAVEWESNGQPENNYKTTPPVLDSDGSFFLYSKLTVDKSRWQQGNVFSCSVMHEALHNHYTQKSLSLSPGGGGGSGGGGSGGGGSGGGGSQVQLVQSGVEVKKPGASVKVSCKASGYTFTNYYMYWVRQAPGQGLEWMGGINPSNGGTNFNEKFKNRVTLTTDSSTTTAYMELKSLQFDDTAVYYCARRDYRFDMGFDYWGQGTTVTVSSASTKGPSVFPLAPSSKSTSGGTAALGCLVKDYFPEPVTVSWNSGALTSGVHTFPAVLQSSGLYSLSSVVTVPSSSLGTQTYICNVNHKPSNTKVDKKVEPKSCDKTHTGGSSGSGSGSTGTSSSGTGTSAGTTGTSASTSGSGSGGGGGSGGGGSAGGEIVLTQSPATLSLSPGERATLSCRASKGVSTSGYSYLHWYQQKPGQAPRLLIYLASYLESGVPARFSGSGSGTDFTLTISSLEPEDFAVYYCQHSRDLPLTFGGGTKVEIKRTVAAPSVFIFPPSDEQLKSGTASVVCLLNNFYPREAKVQWKVDNALQSGNSQESVTEQDSKDSTYSLSSTLTLSKADYEKHKVYACEVTHQGLSSPVTKSFNRGEC
light: not shown
B3: bsAb033 (bispecific antibody, not shown: small tags and cut ends)
heavy (part 1 of 2): QVQLVQSGAEVKKPGASVKLSCKASGYIFTRYYMYWVKQRPGQGLEWIGEINPNNGGTKFNEKFKNRATLTVDKSISTAYMELSRLRSDDTAVYYCSREDDYDGTPFAMDYWGQGTLVTVSS
heavy (part 2 of 2): GGGGSGGGGSGGGGSGGGGSQVQLVQSGVEVKKPGASVKVSCKASGYTFTNYYMYWVRQAPGQGLEWMGGINPSNGGTNFNEKFKNRVTLTTDSSTTTAYMELKSLQFDDTAVYYCARRDYRFDMGFDYWGQGTTVTVSSGGGGSGGGGSGGGGSGGGGSEIVLTQSPATLSLSPGERATLSCRASKGVSTSGYSYLHWYQQKPGQAPRLLIYLASYLESGVPARFSGSGSGTDFTLTISSLEPEDFAVYYCQHSRDLPLTFGGGTKVEIK
heavy: B3 heavy (part 1 of 2)
light: not shown
B4: bsAb049 (bispecific antibody, not shown: small tags and cut ends)
heavy 1: QVQLVQSGVEVKKPGASVKVSCKASGYTFTNYYMYWVRQAPGQGLEWMGGINPSNGGTNFNEKFKNRVTLTTDSSTTTAYMELKSLQFDDTAVYYCARRDYRFDMGFDYWGQGTTVTVSSGGGGSGGGGSGGGGSGGGGSEIVLTQSPATLSLSPGERATLSCRASKGVSTSGYSYLHWYQQKPGQAPRLLIYLASYLESGVPARFSGSGSGTDFTLTISSLEPEDFAVYYCQHSRDLPLTFGGGTKVEIKGGGGSGGGGSGGGGSGGGGSQVQLVQSGAEVKKPGASVKLSCKASGYIFTRYYMYWVKQRPGQGLEWIGEINPNNGGTKFNEKFKNRATLTVDKSISTAYMELSRLRSDDTAVYYCSREDDYDGTPFAMDYWGQGTLVTVSS
heavy 2: B3 heavy (part 1 of 2)
light: not shown
B5: bsAb056 (bispecific antibody, not shown: a dimerising Fc or GST; small tags and cut ends)
heavy 1: B3 heavy (part 2 of 2)
heavy 2: B3 heavy (part 1 of 2)
light: not shown
B6: bsAb052 (bispecific antibody, not shown: small tags and cut ends; a dimerising Fc or GST)
heavy (part 1 of 2): B3 heavy (part 1 of 2)
heavy (part 2 of 2): B3 heavy (part 2 of 2)
heavy: B3 heavy (part 2 of 2)
light: not shown
B7: bsAb047 (bispecific antibody, not shown: small tags and cut ends)
heavy 1: EIVLTQSPATLSLSPGERATLSCRASKGVSTSGYSYLHWYQQKPGQAPRLLIYLASYLESGVPARFSGSGSGTDFTLTISSLEPEDFAVYYCQHSRDLPLTFGGGTKVEIKGGGGSGGGGSGGGGSGGGGSQVQLVQSGVEVKKPGASVKVSCKASGYTFTNYYMYWVRQAPGQGLEWMGGINPSNGGTNFNEKFKNRVTLTTDSSTTTAYMELKSLQFDDTAVYYCARRDYRFDMGFDYWGQGTTVTVSSGGGGSGGGGSGGGGSGGGGSQVQLVQSGAEVKKPGASVKLSCKASGYIFTRYYMYWVKQRPGQGLEWIGEINPNNGGTKFNEKFKNRATLTVDKSISTAYMELSRLRSDDTAVYYCSREDDYDGTPFAMDYWGQGTLVTVSS
heavy 2: B3 heavy (part 1 of 2)
light: not shown
B8: bsAb038 (bispecific antibody, not shown: small tags and cut ends)
heavy (part 1 of 2): B3 heavy (part 1 of 2)
heavy (part 2 of 2): GGGGSGGGGSGGGGSGGGGSEIVLTQSPATLSLSPGERATLSCRASKGVSTSGYSYLHWYQQKPGQAPRLLIYLASYLESGVPARFSGSGSGTDFTLTISSLEPEDFAVYYCQHSRDLPLTFGGGTKVEIKGGGGSGGGGSGGGGSGGGGSQVQLVQSGVEVKKPGASVKVSCKASGYTFTNYYMYWVRQAPGQGLEWMGGINPSNGGTNFNEKFKNRVTLTTDSSTTTAYMELKSLQFDDTAVYYCARRDYRFDMGFDYWGQGTTVTVSS
heavy: B3 heavy (part 1 of 2)
light: not shown

The target in this experiment is BTN3A expressed at the cell surface (human), O00481. The experiment can be described thus: cell-based or functional assay.
BTN3A expressed at the cell surface (human), O00481, sequence (O00481 30-513): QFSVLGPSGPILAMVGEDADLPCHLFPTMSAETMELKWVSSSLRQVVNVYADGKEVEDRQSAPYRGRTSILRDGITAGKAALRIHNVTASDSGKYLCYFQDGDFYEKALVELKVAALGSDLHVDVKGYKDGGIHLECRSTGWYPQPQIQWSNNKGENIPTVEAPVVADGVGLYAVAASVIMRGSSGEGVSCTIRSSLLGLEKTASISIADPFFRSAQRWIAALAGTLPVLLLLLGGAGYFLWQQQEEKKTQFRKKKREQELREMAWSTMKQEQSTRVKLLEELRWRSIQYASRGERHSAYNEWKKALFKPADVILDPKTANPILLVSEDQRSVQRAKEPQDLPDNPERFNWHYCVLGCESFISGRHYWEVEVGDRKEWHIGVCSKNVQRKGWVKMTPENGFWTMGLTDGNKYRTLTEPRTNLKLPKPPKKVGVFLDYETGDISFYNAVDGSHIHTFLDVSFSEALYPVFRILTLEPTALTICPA
Regarding B1, the Jurkat-Vy9Vo2 TCR MOP activation at 0.5 nM (fold-change to medium) came out at 3.7 and the Jurkat-Vy9Vo2 TCR MOP activation at 5 nM (fold-change to medium) was 5.4.
On to B2, for which the Jurkat-Vy9Vo2 TCR MOP activation at 0.5 nM (fold-change to medium) came out at 2.9 and the Jurkat-Vy9Vo2 TCR MOP activation at 5 nM (fold-change to medium) came out at 1.4.
For B3, in that order: 7.8 and 7.1.
For B4, in that order: 5.9 and 6.2.
On the same counts, the results for B5 are 7 and 10.
Regarding B6, the Jurkat-Vy9Vo2 TCR MOP activation at 0.5 nM (fold-change to medium) turned out to be 4.2 and the Jurkat-Vy9Vo2 TCR MOP activation at 5 nM (fold-change to medium) stood at 4.5.
B7 came in with a Jurkat-Vy9Vo2 TCR MOP activation at 0.5 nM (fold-change to medium) of 4 and a Jurkat-Vy9Vo2 TCR MOP activation at 5 nM (fold-change to medium) of 5.8.
On the same counts, the results for B8 are 8.5 and 7.2.
